The results in this text go back to paper PMC7962484 (RNA, 2021).

One assay addresses T1, Nop1^83–321 (S. cerevisiae, UniProt P15646 83-321).
T1 sequence (looked up): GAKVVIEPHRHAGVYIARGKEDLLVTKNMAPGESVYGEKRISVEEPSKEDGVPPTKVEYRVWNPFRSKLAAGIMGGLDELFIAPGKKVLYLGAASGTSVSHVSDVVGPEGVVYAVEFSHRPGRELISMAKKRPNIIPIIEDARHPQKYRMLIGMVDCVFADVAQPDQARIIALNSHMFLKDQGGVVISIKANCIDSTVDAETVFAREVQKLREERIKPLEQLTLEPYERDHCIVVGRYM
Kind of assay: SEC.

In another assay the target is T2, Sc Nop1^83–327 (S. cerevisiae, UniProt P15646 83-327).
T2 sequence (looked up): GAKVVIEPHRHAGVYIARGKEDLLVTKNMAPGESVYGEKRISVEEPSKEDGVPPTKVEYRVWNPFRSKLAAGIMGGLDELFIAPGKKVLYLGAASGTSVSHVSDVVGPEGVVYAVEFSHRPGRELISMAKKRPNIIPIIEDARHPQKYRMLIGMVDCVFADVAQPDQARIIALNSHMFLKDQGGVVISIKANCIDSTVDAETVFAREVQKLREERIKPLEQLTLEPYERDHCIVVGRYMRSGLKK
Briefly: SEC.

B1: Sc Nop56^1–166 (domain or fragment, S. cerevisiae, UniProt Q12460 1-166, looked up)
chain: MAPIEYLLFEEPTGYAVFKVKLQQDDIGSRLKEVQEQINDFGAFTKLIELVSFAPFKGAAEALENANDISEGLVSESLKAILDLNLPKASSKKKNITLAISDKNLGPSIKEEFPYVDCISNELAQDLIRGVRLHGEKLFKGLQSGDLERAQLGLGHAYSRAKVKFS
Take B1: the binding result with Nop1^83–321 is recorded as “binds”.

B2: Sc Nop56^1–166-L147W/E148F (domain or fragment, S. cerevisiae, UniProt Q12460 1-166, looked up)
chain: MAPIEYLLFEEPTGYAVFKVKLQQDDIGSRLKEVQEQINDFGAFTKLIELVSFAPFKGAAEALENANDISEGLVSESLKAILDLNLPKASSKKKNITLAISDKNLGPSIKEEFPYVDCISNELAQDLIRGVRLHGEKLFKGLQSGDWFRAQLGLGHAYSRAKVKFS
As for B2, the binding result with Sc Nop1^83–327 is “binds”.

B3: Nop56^1–166-Q35A/N39A (domain or fragment, S. cerevisiae, UniProt Q12460 1-166, looked up)
chain: MAPIEYLLFEEPTGYAVFKVKLQQDDIGSRLKEVAEQIADFGAFTKLIELVSFAPFKGAAEALENANDISEGLVSESLKAILDLNLPKASSKKKNITLAISDKNLGPSIKEEFPYVDCISNELAQDLIRGVRLHGEKLFKGLQSGDLERAQLGLGHAYSRAKVKFS
In the case of B3, the binding result with Sc Nop1^83–327 is on record as “binds”.
